# Measured values as given in article PMC9592559 (Structure(London, England:1993), 2022).
# B1: human TOP2B ATPase domain (45–444) (domain or fragment, UniProt Q02880-2 45-444, looked up)
# chain: SVERVYQKKTQLEHILLRPDTYIGSVEPLTQFMWVYDEDVGMNCREVTFVPGLYKIFDEILVNAADNKQRDKNMTCIKVSIDPESNIISIWNNGKGIPVVEHKVEKVYVPALIFGQLLTSSNYDDDEKKVTGGRNGYGAKLCNIFSTKFTVETACKEYKHSFKQTWMNNMMKTSEAKIKHFDGEDYTCITFQPDLSKFKMEKLDKDIVALMTRRAYDLAGSCRGVKVMFNGKKLPVNGFRSYVDLYVKDKLDETGVALKVIHELANERWDVCLTLSEKGFQQISFVNSIATTKGGRHVDYVVDQVVGKLIEVVKKKNKAGVSVKPFQVKNHIWVFINCLIENPTFDSQTKENMTLQPKSFGSKCQLSEKFFKAASNCGIVESILNWVKFKAQTQLNKKCS
# notes: Cloned by LIC into the pET His6 MBP Asn10 TEV LIC vector (1C), Addgene plasmid 29654; The models hold residues 46–429 (7QFO), 47–422 (7QFN) and 45–422 (7ZBG); not shown: His6, N-terminal, cleaved; MBP, N-terminal, cleaved
# Target: the molecule itself
# Assay: SEC; analytical gel filtration of TOP2B (45–444) in the presence and absence of AMPPNP
protein,measurement,value
B1,stoichiometry N,2
